System: Healthy Individual's Peripheral Blood Neutrophil
Test: Inhibition of NET formation in neutrophils pretreated with lactoferrin-derived peptide fragment; DNA concentration in culture supernatant (Picogreen)
Assay type: cell-based
Details: human neutrophils, pretreatment at room temperature for 30 minutes
Description: Effect of Inhibiting NET Formation Stimulation of Healthy Individual's Peripheral Blood Neutrophil by Pretreatment with Lactoferrin-derived Peptide Fragment
For each round of experiment, 15 ml to 20 ml of peripheral blood was collected from a healthy individual by using an EDTA-containing syringe (with a needle of 18 to 22 G). After collecting the blood, in a 15 ml conical tube charged with 3 ml of Mono-Poly Resolving Medium (Cat No. DSBN100, DS Pharma Biochemical Co., Ltd.), 3.5 ml of the whole blood was gently layered over a lower layer of Mono-Poly Resolving Medium. The resultant 15 ml conical tube was centrifuged with a swing centrifuge at room temperature (15 to 30° C.) at 400×g for 20 minutes, and the conical tube was then gently taken out. An uppermost brown plasma layer and a lymphocyte/monocyte layer thereunder were removed with an aspirator or the like. In addition, a transparent layer under the lymphocyte/monocyte layer was removed as much as possible. […]
A culture supernatant was collected, centrifuged at 200×g for 10 minutes, and the thus obtained supernatant was transferred to a fresh microcentrifuge tube. The amount of DNA was measured by using Picogreen dsDNA assay reagent (P11496 Invitrogen) in accordance with the accompanying protocol.

B1: human lactoferrin: Human lactoferrin protein, Genbank NP_001186078.1 (protein, listed as Homo sapiens)
chain: MRKVRGPPVSCIKRDSPIQCIQAIAENRADAVTLDGGFIYEAGLAPYKLRPVAAEVYGTERQPRTHYYAVAVVKKGGSFQLNELQGLKSCHTGLRRTAGWNVPIGTLRPFLNWTGPPEPIEAAVARFFSASCVPGADKGQFPNLCRLCAGTGENKCAFSSQEPYFSYSGAFKCLRDGAGDVAFIRESTVFEDLSDEAERDEYELLCPDNTRKPVDKFKDCHLARVPSHAVVARSVNGKEDAIWNLLRQAQEKFGKDKSPKFQLFGSPSGQKDLLFKDSAIGFSRVPPRIDSGLYLGSGYFTAIQNLRKSEEEVAARRARVVWCAVGEQELRKCNQWSGLSEGSVTCSSASTTEDCIALVLKGEADAMSLDGGYVYTAGKCGLVPVLAENYKSQQSSDPDPNCVDRPVEGYLAVAVVRRSDTSLTWNSVKGKKSCHTAVDRTAGWNIPMGLLFNQTGSCKFDEYFSQSCAPGSDPRSNLCALCIGDEQGENKCVPNSNERYYGYTGAFRCLAENAGDVAFVKDVTVLQNTDGNNNEAWAKDLKLADFALLCLDGKRKPVTEARSCHLAMAPNHAVVSRMDKVERLKQVLLHQQAKFGRNGSDCPDKFCLFQSETKNLLFNDNTECLARLHGKTTYEKYLGPQYVAGITNLKKCSTSPLLEACEFLRK
- DNA concentration in the culture supernatant (release of the DNA due to the NET): reduced in a concentration-dependent manner
